From patent publication US20060281109, “Polymerases” (published 2006) come the findings set out here.

The target of data set [1] is T1, 9°N-7 YAV C223S exo- 71 deletion (C-terminus 704) (Thermococcus sp. 9°N-7) (UniProt Q56366).
T1 sequence: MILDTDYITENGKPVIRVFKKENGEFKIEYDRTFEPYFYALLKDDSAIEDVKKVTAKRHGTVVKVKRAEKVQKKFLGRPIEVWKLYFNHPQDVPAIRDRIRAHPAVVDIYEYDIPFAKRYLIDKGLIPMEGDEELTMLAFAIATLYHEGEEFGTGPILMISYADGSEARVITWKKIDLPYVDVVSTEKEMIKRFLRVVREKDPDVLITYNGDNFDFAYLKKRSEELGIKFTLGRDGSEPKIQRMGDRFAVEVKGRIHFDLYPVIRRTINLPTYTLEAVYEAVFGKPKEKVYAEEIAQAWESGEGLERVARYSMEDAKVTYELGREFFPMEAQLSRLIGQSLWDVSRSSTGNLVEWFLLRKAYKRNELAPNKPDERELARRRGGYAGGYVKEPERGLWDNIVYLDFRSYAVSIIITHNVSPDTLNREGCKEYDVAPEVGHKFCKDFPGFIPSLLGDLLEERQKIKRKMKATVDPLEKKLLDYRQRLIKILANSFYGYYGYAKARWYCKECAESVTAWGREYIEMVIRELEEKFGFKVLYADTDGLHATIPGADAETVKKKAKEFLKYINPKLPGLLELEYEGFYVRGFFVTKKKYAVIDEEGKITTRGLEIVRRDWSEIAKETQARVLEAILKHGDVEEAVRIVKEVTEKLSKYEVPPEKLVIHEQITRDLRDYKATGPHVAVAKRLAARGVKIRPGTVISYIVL
The note with it: crude enzyme; kobs relative to YAV, essentially inactive.

The target in data set [2] is T2, 9°N-7 DNA polymerase YAV C223S exo- (clone 9) C223S,L408Y,Y409A,P410V (Thermococcus sp. 9°N-7) (UniProt Q56366).
T2 sequence: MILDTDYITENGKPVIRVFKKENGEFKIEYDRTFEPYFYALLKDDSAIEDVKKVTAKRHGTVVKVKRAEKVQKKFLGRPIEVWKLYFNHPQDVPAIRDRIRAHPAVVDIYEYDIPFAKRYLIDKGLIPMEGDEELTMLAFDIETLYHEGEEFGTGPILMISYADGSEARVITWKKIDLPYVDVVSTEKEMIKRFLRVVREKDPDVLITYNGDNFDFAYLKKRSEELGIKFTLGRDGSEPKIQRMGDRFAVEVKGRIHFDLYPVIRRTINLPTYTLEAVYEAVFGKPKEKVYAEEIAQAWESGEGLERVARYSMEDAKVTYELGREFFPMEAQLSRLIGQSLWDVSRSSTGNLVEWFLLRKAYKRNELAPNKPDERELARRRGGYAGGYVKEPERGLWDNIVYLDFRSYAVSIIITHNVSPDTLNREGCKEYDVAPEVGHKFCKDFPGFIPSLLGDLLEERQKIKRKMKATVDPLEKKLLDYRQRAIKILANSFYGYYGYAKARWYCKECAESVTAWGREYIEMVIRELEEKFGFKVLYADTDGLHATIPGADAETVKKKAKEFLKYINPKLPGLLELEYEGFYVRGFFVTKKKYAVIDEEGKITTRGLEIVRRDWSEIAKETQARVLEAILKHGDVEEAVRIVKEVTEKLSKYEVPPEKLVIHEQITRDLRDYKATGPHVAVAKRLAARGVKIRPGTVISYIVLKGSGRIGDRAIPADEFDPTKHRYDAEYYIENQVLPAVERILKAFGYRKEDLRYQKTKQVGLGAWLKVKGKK
The conditions noted are these: burst kobs, DNA:pol 5:1; biphasic, burst amplitude 19%.

For data set [3], the target named is T3, 9°N-7 YAV C223S exo- K705A (Thermococcus sp. 9°N-7, UniProt Q56366 SEQ:1-775).
T3 chain: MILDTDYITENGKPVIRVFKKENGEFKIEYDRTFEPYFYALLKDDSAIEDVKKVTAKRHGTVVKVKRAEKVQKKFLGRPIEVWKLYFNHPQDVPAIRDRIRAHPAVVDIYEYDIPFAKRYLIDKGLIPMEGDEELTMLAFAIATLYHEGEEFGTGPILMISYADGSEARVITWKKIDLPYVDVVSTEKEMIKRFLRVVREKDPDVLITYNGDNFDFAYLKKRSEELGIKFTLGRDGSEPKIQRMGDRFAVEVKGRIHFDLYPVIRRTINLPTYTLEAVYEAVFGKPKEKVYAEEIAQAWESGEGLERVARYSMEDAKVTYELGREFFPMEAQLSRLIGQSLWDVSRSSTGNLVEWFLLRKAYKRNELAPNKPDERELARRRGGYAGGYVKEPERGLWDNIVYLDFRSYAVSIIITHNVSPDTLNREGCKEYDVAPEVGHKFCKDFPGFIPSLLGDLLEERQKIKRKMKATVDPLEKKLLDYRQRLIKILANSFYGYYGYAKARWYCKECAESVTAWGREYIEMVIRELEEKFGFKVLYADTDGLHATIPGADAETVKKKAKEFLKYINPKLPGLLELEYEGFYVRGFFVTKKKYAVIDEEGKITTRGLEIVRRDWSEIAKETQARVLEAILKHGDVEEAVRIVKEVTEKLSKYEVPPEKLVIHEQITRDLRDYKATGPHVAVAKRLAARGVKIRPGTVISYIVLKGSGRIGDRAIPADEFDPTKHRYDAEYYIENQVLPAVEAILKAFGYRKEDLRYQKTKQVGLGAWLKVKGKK
The conditions noted are these: burst kobs, DNA:pol 5:1; biphasic, burst amplitude ~28%.

The target in data set [4] is T4, 9°N-7 YAV C223S exo- R713A (Thermococcus sp. 9°N-7) (UniProt Q56366).
T4 sequence: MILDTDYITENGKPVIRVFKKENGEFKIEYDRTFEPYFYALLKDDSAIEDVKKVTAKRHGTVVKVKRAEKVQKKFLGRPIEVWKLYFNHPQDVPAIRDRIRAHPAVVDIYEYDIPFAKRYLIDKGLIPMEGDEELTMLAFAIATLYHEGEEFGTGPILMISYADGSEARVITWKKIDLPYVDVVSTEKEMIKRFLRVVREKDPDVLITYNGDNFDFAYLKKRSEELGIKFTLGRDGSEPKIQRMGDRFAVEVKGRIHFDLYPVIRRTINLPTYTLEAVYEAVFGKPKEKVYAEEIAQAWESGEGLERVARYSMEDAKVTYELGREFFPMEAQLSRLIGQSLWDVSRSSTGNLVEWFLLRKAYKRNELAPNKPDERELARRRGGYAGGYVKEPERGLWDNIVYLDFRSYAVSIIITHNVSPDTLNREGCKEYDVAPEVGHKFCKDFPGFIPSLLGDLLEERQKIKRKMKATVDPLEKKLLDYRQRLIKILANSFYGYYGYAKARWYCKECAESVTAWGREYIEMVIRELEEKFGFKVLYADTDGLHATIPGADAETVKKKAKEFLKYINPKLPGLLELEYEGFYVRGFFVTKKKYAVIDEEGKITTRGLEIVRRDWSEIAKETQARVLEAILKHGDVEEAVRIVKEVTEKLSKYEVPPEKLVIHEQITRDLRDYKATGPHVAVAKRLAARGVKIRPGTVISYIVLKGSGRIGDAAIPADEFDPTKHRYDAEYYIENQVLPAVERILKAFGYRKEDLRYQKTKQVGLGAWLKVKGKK
The note with it: kobs, DNA:pol 5:1; single exponential, amplitude ~90%.

Data set [5] deals with T5, 9°N-7 YAV C223S exo- R743A (Thermococcus sp. 9°N-7) (UniProt Q56366).
T5 sequence: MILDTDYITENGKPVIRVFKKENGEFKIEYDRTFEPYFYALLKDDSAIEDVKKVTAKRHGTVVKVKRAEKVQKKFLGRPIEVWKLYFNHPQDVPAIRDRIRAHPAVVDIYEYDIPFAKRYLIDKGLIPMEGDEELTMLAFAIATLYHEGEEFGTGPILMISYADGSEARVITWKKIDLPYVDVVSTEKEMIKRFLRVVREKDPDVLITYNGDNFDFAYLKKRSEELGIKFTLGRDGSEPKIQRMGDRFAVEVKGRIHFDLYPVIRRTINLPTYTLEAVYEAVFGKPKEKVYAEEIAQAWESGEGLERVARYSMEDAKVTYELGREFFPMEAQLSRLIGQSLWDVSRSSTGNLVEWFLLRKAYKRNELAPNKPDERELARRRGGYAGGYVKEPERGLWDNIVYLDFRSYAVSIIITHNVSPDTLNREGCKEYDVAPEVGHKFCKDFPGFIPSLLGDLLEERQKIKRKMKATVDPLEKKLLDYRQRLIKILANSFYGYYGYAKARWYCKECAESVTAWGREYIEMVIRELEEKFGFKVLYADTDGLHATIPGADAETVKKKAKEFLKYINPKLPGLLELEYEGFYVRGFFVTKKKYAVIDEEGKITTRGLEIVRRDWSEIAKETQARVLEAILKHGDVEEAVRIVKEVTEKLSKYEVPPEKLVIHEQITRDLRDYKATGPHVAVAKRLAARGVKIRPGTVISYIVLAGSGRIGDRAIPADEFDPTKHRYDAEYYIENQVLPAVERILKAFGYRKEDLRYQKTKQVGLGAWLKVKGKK
The conditions noted are these: kobs, DNA:pol 5:1; single exponential, amplitude ~90%.

Data set [6] deals with T3, 9°N-7 YAV C223S exo- K705A. Nature of the data set: washing assay; similar response to clone 9. The note with it: hairpin with 5' overhang. As to the method:
Once washed, each well was incubated with a 20 μl aliquot of 500 nM enzyme (clone 9, K705A, R713A or R743A mutants) at 45° C. for 30 minutes. Post incubation, each well was washed with […] 10 mM Tris pH 8.0, 10 mM EDTA including varying concentrations of NaCl (0, 0.05, 0.1, 0.3, 0.4, 0.75, 1.0, 2.0 M) and then […] MilliQ water. Wells were subsequently pre-equilibrated with enzymology buffer prior to a further incubation of 20 μl of 2 μM ffT-N3-647 at 45° C. for 30 minutes. Wells were washed with 3×100 ml high salt wash buffer (10 mM Tris pH 8.0, 1M NaCl, 10 mM EDTA) and then 3×100 ml MilliQ water. Strips scanned on Typhoon fluorescence imager (y5 filter, PMT=500 V).

For the molecule 10 A hairpin DNA, the relative kobs (% of YAV) in data set [1] was determined as 21%. For the same molecule, the activity in data set [2] came out at 0.06 s⁻¹; in data set [3], 0.06 s⁻¹; in data set [4], 0.01 s⁻¹; in data set [5], 0.004 s⁻¹.

B1: A-template hairpin oligo 815 (structured_DNA)
DNA: CGATCACGATCACGATCACGATCACGATCACGATCACGCTGATGTGCATGCTGTTGTTTTTTTACAACAGCATGCACATCAGCG
modifications: 5'-amino, surface coupled
Take B1: the binding result in data set [6] is “binds”.
